Patent US20110275702

Test system: Ramos cell surface target (unidentified; human B-cell leukemia cells)
Assay: competition
Conditions: competition with FITC-labeled monomer on target cells, flow cytometry

First: TAGGCAGTGGTTTGACGTCCGCATGTTGGGAATAGCCACGCCT / TAGGCAGTGGTTTGACGTCCGCATGTTGGGAATAGCCACGCCT / TAGGCAGTGGTTTGACGTCCGCATGTTGGGAATAGCCACGCCT / TAGGCAGTGGTTTGACGTCCGCATGTTGGGAATAGCCACGCCT [rigid tetramer of SEQ 3 aptamer]
Second: TAGGCAGTGGTTTGACGTCCGCATGTTGGGAATAGCCACGCCT / TAGGCAGTGGTTTGACGTCCGCATGTTGGGAATAGCCACGCCT / TAGGCAGTGGTTTGACGTCCGCATGTTGGGAATAGCCACGCCT [flexible trimer of SEQ 3 aptamer]
The IC50 of the first is 2.4-fold lower: 0.0116 µM for the first, 0.0278 µM for the second. The first is the more potent here.

Going from “TAGGCAGTGGTTTGACGTCCGCATGTTGGGAATAGCCACGCCT / TAGGCAGTGGTTTGACGTCCGCATGTTGGGAATAGCCACGCCT / TAGGCAGTGGTTTGACGTCCGCATGTTGGGAATAGCCACGCCT [rigid trimer of SEQ 3 aptamer]” to “TAGGCAGTGGTTTGACGTCCGCATGTTGGGAATAGCCACGCCT / TAGGCAGTGGTTTGACGTCCGCATGTTGGGAATAGCCACGCCT [flexible dimer of SEQ 3 aptamer]”, the IC50 rises from 0.0208 µM to 0.033 µM (1.6-fold).

“TAGGCAGTGGTTTGACGTCCGCATGTTGGGAATAGCCACGCCT / TAGGCAGTGGTTTGACGTCCGCATGTTGGGAATAGCCACGCCT [rigid dimer of SEQ 3 aptamer]” showed an IC50 of 0.0225 µM.

Same assay, conditions: unlabeled monomer vs FITC-labeled monomer on target cells, flow cytometry

In the case of “TAGGCAGTGGTTTGACGTCCGCATGTTGGGAATAGCCACGCCT [Ramos-binding ssDNA aptamer monomer]”, the IC50 is reported as 0.4 µM.
